Measurements taken from PMC6254359, “A helical LC3-interacting region mediates the interaction between the retroviral restriction factor Trim5α and mammalian autophagy-related ATG8 proteins” (The Journal of Biological Chemistry, 2018).

Legend:
[1] = target: LC3B H27A (UniProt Q9GZQ8 2-119, His27 to alanine); assay: AUC; sedimentation velocity, c(s) analysis of equimolar mixtures, 20 μM each; 20 °C, 50,000 rpm; 10 mM Tris/HCl pH 8, 150 mM NaCl, 0.1 mM TCEP; shift of the fast-moving peak; conditions: both partners purified
[2] = target: LC3B I23R (UniProt Q9GZQ8 2-119, Ile23 to arginine); assay: as above; conditions: both partners purified
[3] = target: the molecule itself; assay: AUC; sedimentation velocity, c(s) analysis of each protein alone at 20 μM; 20 °C; 10 mM Tris/HCl pH 8, 150 mM NaCl, 0.1 mM TCEP
[4] = target: T1, GABARAPL1 (UniProt Q9H0R8 1-117); assay: AUC; sedimentation velocity, 20 μM RhT5 88–296 EK/RD with 0–320 μM LC3B or GABARAPL1; S value of the fast peak against concentration, one-site binding model; 20 °C; 10 mM Tris/HCl pH 8, 150 mM NaCl, 0.1 mM TCEP; conditions: both partners purified
T1 construct: also called mATG8 isoform GABARAPL1

[5] = target: autophagy-related protein LC3 B (LC3B), construct 2–119 (UniProt Q9GZQ8 2-119); assay: AUC; sedimentation velocity, c(s) analysis of equimolar mixtures, 20 μM each; 20 °C, 50,000 rpm; 10 mM Tris/HCl pH 8, 150 mM NaCl, 0.1 mM TCEP; shift of the fast-moving peak; conditions: both partners purified
[6] = target: the molecule itself; assay: SEC-MALS + AUC; Trim5α mutants alone; SEC–MALLS on Superdex 75 Increase 10/300 in 10 mM Tris/HCl pH 7.8, 150 mM NaCl, 0.1 mM TCEP, 3 mM azide, and c(s) analysis of sedimentation velocity

Binder	binding result [5]	stoichiometry N [6]	other results
Trim5α from Rhesus macaque, Bbox coiled-coil regions, residues 88–296 with the E120K/R121D mutation (domain or fragment, UniProt Q0PF16 88-296, looked up) PEEGQKVDHCARHGEKLLLFCQEDSKVICWLCKDSQEHRGHHTFLMEEVAQEYHVKLQTALEMLRQKQQEAEKLEADIREEKASWKIQIDYDKTNVSADFEQLREILDWEESNELQNLEKEEEDILKSLTKSETEMVQQTQYMRELISELEHRLQGSMMDLLQGVDGIIKRIENMTLKKPKTFHKNQRRVFRAPDLKGMLDMFRELTDA			binding result [1]: binds; binding result [2]: binds; stoichiometry N [3]: 2; Kd [4]: 78 ± 6 µM
RhT5 88–296 EK/RD E192A (domain or fragment, Rhesus macaque, UniProt Q0PF16 88-296, looked up) PEEGQKVDHCARHGEKLLLFCQEDSKVICWLCKDSQEHRGHHTFLMEEVAQEYHVKLQTALEMLRQKQQEAEKLEADIREEKASWKIQIDYDKTNVSADFEQLRAILDWEESNELQNLEKEEEDILKSLTKSETEMVQQTQYMRELISELEHRLQGSMMDLLQGVDGIIKRIENMTLKKPKTFHKNQRRVFRAPDLKGMLDMFRELTDA		2	
RhT5 88–296 EK/RD E192K (domain or fragment, Rhesus macaque, UniProt Q0PF16 88-296, looked up) PEEGQKVDHCARHGEKLLLFCQEDSKVICWLCKDSQEHRGHHTFLMEEVAQEYHVKLQTALEMLRQKQQEAEKLEADIREEKASWKIQIDYDKTNVSADFEQLRKILDWEESNELQNLEKEEEDILKSLTKSETEMVQQTQYMRELISELEHRLQGSMMDLLQGVDGIIKRIENMTLKKPKTFHKNQRRVFRAPDLKGMLDMFRELTDA		2	
RhT5 88–296 EK/RD E206K (domain or fragment, Rhesus macaque, UniProt Q0PF16 88-296, looked up) PEEGQKVDHCARHGEKLLLFCQEDSKVICWLCKDSQEHRGHHTFLMEEVAQEYHVKLQTALEMLRQKQQEAEKLEADIREEKASWKIQIDYDKTNVSADFEQLREILDWEESNELQNLKKEEEDILKSLTKSETEMVQQTQYMRELISELEHRLQGSMMDLLQGVDGIIKRIENMTLKKPKTFHKNQRRVFRAPDLKGMLDMFRELTDA		2	
RhT5 88–296 EK/RD E206A (domain or fragment, Rhesus macaque, UniProt Q0PF16 88-296, looked up) PEEGQKVDHCARHGEKLLLFCQEDSKVICWLCKDSQEHRGHHTFLMEEVAQEYHVKLQTALEMLRQKQQEAEKLEADIREEKASWKIQIDYDKTNVSADFEQLREILDWEESNELQNLAKEEEDILKSLTKSETEMVQQTQYMRELISELEHRLQGSMMDLLQGVDGIIKRIENMTLKKPKTFHKNQRRVFRAPDLKGMLDMFRELTDA		2	
W196A RhT5 88–296 EK/RD (domain or fragment, Rhesus macaque, UniProt Q0PF16 88-296, looked up) PEEGQKVDHCARHGEKLLLFCQEDSKVICWLCKDSQEHRGHHTFLMEEVAQEYHVKLQTALEMLRQKQQEAEKLEADIREEKASWKIQIDYDKTNVSADFEQLREILDAEESNELQNLEKEEEDILKSLTKSETEMVQQTQYMRELISELEHRLQGSMMDLLQGVDGIIKRIENMTLKKPKTFHKNQRRVFRAPDLKGMLDMFRELTDA		2	

Continued, in another order:

binding result [5]	Binder	stoichiometry N [6]	other results
binds	RhT5 88–296 EK/RD E197A (domain or fragment, Rhesus macaque, UniProt Q0PF16 88-296, looked up) PEEGQKVDHCARHGEKLLLFCQEDSKVICWLCKDSQEHRGHHTFLMEEVAQEYHVKLQTALEMLRQKQQEAEKLEADIREEKASWKIQIDYDKTNVSADFEQLREILDWAESNELQNLEKEEEDILKSLTKSETEMVQQTQYMRELISELEHRLQGSMMDLLQGVDGIIKRIENMTLKKPKTFHKNQRRVFRAPDLKGMLDMFRELTDA	2	
binds	RhT5 88–296 EK/RD Q203A (domain or fragment, Rhesus macaque, UniProt Q0PF16 88-296, looked up) PEEGQKVDHCARHGEKLLLFCQEDSKVICWLCKDSQEHRGHHTFLMEEVAQEYHVKLQTALEMLRQKQQEAEKLEADIREEKASWKIQIDYDKTNVSADFEQLREILDWEESNELANLEKEEEDILKSLTKSETEMVQQTQYMRELISELEHRLQGSMMDLLQGVDGIIKRIENMTLKKPKTFHKNQRRVFRAPDLKGMLDMFRELTDA	2	
binds	RhT5 88–296 EK/RD E198K (domain or fragment, Rhesus macaque, UniProt Q0PF16 88-296, looked up) PEEGQKVDHCARHGEKLLLFCQEDSKVICWLCKDSQEHRGHHTFLMEEVAQEYHVKLQTALEMLRQKQQEAEKLEADIREEKASWKIQIDYDKTNVSADFEQLREILDWEKSNELQNLEKEEEDILKSLTKSETEMVQQTQYMRELISELEHRLQGSMMDLLQGVDGIIKRIENMTLKKPKTFHKNQRRVFRAPDLKGMLDMFRELTDA	2	
binds	RhT5 88–296 EK/RD Q189A (domain or fragment, Rhesus macaque, UniProt Q0PF16 88-296, looked up) PEEGQKVDHCARHGEKLLLFCQEDSKVICWLCKDSQEHRGHHTFLMEEVAQEYHVKLQTALEMLRQKQQEAEKLEADIREEKASWKIQIDYDKTNVSADFEALREILDWEESNELQNLEKEEEDILKSLTKSETEMVQQTQYMRELISELEHRLQGSMMDLLQGVDGIIKRIENMTLKKPKTFHKNQRRVFRAPDLKGMLDMFRELTDA	2	
